The target in experiment [1] is myosin from chicken gizzard, dephosphorylated form (chicken) (UniProt P10587). The experiment is described as follows: co-sedimentation with M21 in excess (10-50 µM M21, 1 µM myosin), Coomassie-stained gel.
The target in experiment [2] is PP1GL, glycogen-associated form of PP1 in rat hepatic glycogen-protein particles (rat). Briefly: cell-based or functional assay.
Experiment [3] concerns the target myosin from chicken gizzard, dephosphorylated form (chicken) (UniProt P10587). The experiment is described as follows: co-sedimentation, 30 nM PP1M with 1 µM myosin.

myosin from chicken gizzard, dephosphorylated form (chicken), sequence (P10587 2-1979, chain 1 of 3): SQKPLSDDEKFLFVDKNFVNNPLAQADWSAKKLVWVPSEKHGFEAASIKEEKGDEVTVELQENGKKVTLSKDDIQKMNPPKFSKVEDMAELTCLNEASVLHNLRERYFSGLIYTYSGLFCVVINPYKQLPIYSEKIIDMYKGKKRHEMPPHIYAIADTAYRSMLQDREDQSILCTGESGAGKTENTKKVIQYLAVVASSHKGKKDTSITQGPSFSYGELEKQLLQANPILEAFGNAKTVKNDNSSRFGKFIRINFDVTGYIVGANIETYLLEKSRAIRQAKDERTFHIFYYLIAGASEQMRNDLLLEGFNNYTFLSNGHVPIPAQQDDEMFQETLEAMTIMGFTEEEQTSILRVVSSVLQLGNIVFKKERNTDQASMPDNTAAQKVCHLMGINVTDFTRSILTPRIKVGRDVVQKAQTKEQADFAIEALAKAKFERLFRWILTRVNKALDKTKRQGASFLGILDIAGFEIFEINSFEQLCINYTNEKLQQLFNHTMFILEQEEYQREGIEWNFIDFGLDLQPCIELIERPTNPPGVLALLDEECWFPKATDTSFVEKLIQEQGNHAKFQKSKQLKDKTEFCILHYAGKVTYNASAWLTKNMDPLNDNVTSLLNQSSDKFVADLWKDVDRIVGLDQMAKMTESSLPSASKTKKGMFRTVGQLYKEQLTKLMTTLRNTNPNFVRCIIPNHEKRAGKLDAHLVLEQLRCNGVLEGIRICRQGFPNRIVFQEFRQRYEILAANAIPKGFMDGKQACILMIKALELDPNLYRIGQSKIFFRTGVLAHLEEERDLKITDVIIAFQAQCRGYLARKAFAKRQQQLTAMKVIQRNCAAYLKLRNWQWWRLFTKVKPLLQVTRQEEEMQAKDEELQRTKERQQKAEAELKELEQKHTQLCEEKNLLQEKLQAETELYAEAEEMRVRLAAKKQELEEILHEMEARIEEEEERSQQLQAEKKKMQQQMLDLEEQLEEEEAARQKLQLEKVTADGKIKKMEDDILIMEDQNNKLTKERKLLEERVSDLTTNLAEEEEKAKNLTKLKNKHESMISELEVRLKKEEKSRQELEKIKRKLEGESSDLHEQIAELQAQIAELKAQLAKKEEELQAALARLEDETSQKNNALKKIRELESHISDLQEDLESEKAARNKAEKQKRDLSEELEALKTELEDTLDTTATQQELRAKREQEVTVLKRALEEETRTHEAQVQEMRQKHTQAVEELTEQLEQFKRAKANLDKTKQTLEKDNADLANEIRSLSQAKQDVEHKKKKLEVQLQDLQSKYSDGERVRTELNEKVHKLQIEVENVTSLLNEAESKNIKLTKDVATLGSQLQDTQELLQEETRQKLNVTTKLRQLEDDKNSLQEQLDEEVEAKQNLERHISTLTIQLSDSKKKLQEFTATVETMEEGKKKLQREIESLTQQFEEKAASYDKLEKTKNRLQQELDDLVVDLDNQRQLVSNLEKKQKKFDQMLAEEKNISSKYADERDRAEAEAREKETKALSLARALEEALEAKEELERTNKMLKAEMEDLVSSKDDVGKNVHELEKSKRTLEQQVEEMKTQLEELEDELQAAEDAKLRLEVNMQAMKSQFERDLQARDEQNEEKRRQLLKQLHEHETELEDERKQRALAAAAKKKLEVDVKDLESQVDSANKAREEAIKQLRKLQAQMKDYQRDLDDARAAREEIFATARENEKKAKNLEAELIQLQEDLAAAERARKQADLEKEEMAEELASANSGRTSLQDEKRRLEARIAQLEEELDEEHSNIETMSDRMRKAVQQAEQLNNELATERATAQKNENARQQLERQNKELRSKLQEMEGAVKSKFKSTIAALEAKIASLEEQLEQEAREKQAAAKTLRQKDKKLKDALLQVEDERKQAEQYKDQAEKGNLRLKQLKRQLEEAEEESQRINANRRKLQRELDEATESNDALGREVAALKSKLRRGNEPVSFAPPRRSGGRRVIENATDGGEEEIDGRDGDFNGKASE
myosin from chicken gizzard, dephosphorylated form (chicken), sequence (P02612 2-172, chain 2 of 3, further chain): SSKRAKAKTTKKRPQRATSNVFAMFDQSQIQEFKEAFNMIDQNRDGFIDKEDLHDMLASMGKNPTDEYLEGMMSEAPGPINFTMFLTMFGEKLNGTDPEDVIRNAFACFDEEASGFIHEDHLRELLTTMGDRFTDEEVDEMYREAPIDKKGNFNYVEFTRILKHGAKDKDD
myosin from chicken gizzard, dephosphorylated form (chicken), sequence (P02607 2-151, chain 3 of 3, further chain): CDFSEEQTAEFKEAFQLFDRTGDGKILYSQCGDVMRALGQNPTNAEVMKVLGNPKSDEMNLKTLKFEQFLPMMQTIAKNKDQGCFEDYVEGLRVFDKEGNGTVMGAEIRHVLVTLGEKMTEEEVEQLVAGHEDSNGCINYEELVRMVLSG
PP1M, myosin-associated form of PP1 from chicken gizzard, sequence (P62207 2-327): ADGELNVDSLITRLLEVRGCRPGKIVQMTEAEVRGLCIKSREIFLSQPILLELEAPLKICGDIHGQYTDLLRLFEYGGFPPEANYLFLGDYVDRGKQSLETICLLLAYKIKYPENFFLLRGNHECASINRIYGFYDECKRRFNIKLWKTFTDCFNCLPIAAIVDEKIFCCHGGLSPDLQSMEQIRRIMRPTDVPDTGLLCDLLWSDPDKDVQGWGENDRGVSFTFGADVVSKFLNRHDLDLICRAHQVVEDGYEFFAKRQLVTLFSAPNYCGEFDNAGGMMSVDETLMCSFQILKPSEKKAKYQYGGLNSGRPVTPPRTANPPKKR
PP1M, myosin-associated form of PP1 from chicken gizzard, sequence (chain): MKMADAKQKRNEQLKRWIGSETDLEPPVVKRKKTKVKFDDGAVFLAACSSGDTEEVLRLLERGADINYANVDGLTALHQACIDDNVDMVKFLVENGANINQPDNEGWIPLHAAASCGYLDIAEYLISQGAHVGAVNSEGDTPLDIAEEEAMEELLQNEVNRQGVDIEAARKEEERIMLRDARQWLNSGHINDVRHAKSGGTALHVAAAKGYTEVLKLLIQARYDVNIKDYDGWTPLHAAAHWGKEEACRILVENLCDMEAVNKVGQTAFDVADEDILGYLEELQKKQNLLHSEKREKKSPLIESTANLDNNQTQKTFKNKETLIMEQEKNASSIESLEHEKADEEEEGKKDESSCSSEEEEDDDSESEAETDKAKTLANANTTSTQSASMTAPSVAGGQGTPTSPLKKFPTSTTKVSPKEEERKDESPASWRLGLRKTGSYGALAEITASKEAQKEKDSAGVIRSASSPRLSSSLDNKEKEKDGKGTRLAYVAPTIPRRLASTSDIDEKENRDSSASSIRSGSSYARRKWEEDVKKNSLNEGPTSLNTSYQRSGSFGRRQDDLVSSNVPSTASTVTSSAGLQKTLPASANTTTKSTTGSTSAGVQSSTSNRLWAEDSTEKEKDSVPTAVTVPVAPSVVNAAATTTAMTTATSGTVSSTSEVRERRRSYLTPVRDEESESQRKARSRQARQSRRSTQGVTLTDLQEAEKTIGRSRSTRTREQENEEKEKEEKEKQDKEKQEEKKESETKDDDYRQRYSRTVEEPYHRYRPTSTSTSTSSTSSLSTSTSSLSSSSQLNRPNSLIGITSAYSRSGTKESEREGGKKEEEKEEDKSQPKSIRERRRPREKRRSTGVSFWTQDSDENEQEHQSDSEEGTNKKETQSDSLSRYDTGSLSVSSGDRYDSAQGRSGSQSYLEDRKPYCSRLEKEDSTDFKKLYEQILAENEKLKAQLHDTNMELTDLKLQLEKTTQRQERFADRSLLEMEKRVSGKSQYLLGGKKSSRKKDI

Regarding “M21 subunit of chicken gizzard PP1M, full length (M1-K186)”, the moles of M21 subunit bound to each myosin dimer (mol/mol myosin dimer) in experiment [1] was greater than 20. Consider “GM[G63-N75] variant with Val 66 changed to Ala (peptide)”, for which the effectiveness of disruption of the PP1-GL complex relative to wild type GM[63-75] in experiment [2] is 100 fold. As to “PP1M, myosin-associated form of PP1 from chicken gizzard (from UniProt P62207 2-327) (enzyme)”, the percent of myosin P-light chain phosphatase recovered in the myosin pellet in experiment [3] was found to be 85%.

Values taken from US6884600.
